Source: paper PMC11706625, “Structural and bioinformatics analyses identify deoxydinucleotide-specific nucleases and their association with genomic islands in gram-positive bacteria” (Nucleic Acids Research, 2025)

What was measured:
[1] = target: NrnC from Bartonella henselae (Bartonella henselae); assay: SEC-MALS; 1-2 mg/ml (~40-80 uM) protein injected on Superdex 200 Increase 10/300 GL in 25 mM HEPES-NaOH, 150 mM NaCl pH 7.5, room temperature
[2] = target: the molecule itself; assay: as above

Row | Molecule | stoichiometry N [1] | stoichiometry N [2]
1 | NrnC from Bartonella henselae (enzyme) | 8 | 
2 | NrnC homolog from Okeania (Cyanobacteria) (enzyme) MSDFQVCDRDLTEAILSDYLQADSIAVDTETMGLLPWRDRLCLVQLCDAQGKVTAIRIEKGQQEAPNLKQLMEATGIVKIFHFARFDVAMLQHHLDIKVSPIFCTKIASKLARTYTGKHGLKDLVMELEKVELDKSAQSSDWGNAENLTEEQLSYAANDVRYLLSVKEKLIKMLKREERWELAQQCFECLPVFVGLDLLQYKDIFEH |  | 8
